From paper doi:10.1101/2025.10.14.682262
Where a chain is given by its changes, count along the chain named. Where two headings read alike, the source gives them in different places.

B1: TGACGT WT probe (dsDNA)
DNA 1: ATCAGATCTAATTGACGTGATAGCATATAGA
DNA 2: TCTATATGCTATCACGTCAATTAGATCTGAT
B2: TGATTT mutated probe (M) (dsDNA)
DNA 1: B1 DNA 1 with C16T, G17T
DNA 2: B1 DNA 2 with C15A, G16A

Columns and labels:
Assay in all cases: EMSA
PAN 5 Cys to Ser = biological target: T1, PAN 5 Cys to Ser (Arabidopsis thaliana, UniProt Q9SX27 1-452, C27S;C68S;C87S;C114S;C154S)
T1 sequence: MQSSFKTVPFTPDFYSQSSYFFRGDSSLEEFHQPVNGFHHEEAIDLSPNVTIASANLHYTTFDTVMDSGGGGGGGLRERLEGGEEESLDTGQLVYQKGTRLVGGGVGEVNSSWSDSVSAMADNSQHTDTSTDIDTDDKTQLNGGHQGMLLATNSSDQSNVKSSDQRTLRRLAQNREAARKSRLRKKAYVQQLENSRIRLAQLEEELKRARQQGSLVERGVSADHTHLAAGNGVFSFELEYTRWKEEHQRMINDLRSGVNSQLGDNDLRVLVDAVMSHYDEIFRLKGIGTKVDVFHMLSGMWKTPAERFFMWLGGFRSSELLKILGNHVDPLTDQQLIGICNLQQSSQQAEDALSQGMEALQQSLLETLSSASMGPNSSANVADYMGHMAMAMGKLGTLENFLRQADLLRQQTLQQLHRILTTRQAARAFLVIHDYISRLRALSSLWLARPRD

PAN 6 Cys to Ser = biological target: T2, PAN 6 Cys to Ser (Arabidopsis thaliana, UniProt Q9SX27 1-452, C27S;C68S;C87S;C114S;C154S;C340S)
T2 sequence: T1 sequence with C340S

PAN (…) WT [1] = biological target: T3, PAN (…) WT (Arabidopsis thaliana, UniProt Q9SX27 1-452)
T3 sequence: T1 sequence with S27C, S68C, S87C, S114C, S154C

PAN (…) WT [2] = biological target: T3, PAN (…) WT; remark: listed apart in the source

Binder | binding result (PAN 5 Cys to Ser) | binding result (PAN 6 Cys to Ser) | binding result (PAN (…) WT [1]) | binding result (PAN (…) WT [2])
B1 | binds | binds | binds | 
B2 |  |  |  | no binding
